Key:
[1] = target: T1, Recombinant Rhesus macaque VEGFR2/KDR Protein, His tag (rhesus macaque); experiment: competition ELISA: VEGF-A coated (0.25 ug/ml), antibody titrated together with 1 ug/ml rhesus VEGFR2, detection with mouse anti-VEGFR2 serum and anti-mouse Fc-HRP; blocked ligand VEGF-A
T1 construct: Expressed in HEK293, bought from ACRO Biosystems; also called rhesus VEGFR2-his; rhesus VEGFR2
T1 chain: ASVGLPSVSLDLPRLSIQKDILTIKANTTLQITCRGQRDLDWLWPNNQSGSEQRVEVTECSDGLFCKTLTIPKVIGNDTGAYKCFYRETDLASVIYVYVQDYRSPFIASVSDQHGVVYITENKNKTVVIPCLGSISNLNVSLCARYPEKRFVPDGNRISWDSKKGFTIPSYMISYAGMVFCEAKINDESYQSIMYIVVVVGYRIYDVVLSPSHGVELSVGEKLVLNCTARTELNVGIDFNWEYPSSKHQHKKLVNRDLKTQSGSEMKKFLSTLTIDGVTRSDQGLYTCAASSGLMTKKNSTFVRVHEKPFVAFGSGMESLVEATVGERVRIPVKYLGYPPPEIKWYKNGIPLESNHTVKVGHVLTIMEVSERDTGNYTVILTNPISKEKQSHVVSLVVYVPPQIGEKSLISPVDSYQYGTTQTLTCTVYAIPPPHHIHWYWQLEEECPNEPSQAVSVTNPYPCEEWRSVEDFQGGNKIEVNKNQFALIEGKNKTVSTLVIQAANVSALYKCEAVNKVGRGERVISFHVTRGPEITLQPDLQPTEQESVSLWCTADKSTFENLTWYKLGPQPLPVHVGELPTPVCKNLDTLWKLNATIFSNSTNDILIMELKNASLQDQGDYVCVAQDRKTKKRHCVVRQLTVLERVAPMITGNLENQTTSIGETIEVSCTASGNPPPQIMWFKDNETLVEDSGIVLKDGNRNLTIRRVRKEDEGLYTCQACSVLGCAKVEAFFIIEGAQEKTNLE
Protocol: For this assay, 0.25 μg/ml VEGF-A was coated on ELISA plate before a mixture of chimeric antibodies and VEGFR2 were added. To detect free VEGF-A (not bind to VEGFR2), 1:1000 diluted mouse serum (mouse previous immunized with human VEGFR2) were added and HRP conjugated goat anti-mouse Fc antibody was used as secondary antibody.
Same protocol of Example 10. Briefly, 0.25 μg/ml VEGF-A was coated overnight at 4° C. After blocking, serial diluted 54-H2L1, 48-H3L1, Ramucirumab and 1 μg/ml human VEGFR2 or rhesus VEGFR2 were added at the same time for 2 hour-incubation. After wash, mouse serum containing polyclone VEGFR2 antibody and HRP conjugated goat anti-mouse Fc antibody were added for detection of free VEGF-A coated on the plates (see FIGS. 13A and 13B).

human VEGFR3 protein = target: T2, human VEGFR3 protein (human, UniProt P35916 25-776); experiment: ELISA, 1 µg/ml antigen coated, 1 µg/ml antibody
T2 construct: also called Sino Biological 10806-H08H
T2 sequence (looked up): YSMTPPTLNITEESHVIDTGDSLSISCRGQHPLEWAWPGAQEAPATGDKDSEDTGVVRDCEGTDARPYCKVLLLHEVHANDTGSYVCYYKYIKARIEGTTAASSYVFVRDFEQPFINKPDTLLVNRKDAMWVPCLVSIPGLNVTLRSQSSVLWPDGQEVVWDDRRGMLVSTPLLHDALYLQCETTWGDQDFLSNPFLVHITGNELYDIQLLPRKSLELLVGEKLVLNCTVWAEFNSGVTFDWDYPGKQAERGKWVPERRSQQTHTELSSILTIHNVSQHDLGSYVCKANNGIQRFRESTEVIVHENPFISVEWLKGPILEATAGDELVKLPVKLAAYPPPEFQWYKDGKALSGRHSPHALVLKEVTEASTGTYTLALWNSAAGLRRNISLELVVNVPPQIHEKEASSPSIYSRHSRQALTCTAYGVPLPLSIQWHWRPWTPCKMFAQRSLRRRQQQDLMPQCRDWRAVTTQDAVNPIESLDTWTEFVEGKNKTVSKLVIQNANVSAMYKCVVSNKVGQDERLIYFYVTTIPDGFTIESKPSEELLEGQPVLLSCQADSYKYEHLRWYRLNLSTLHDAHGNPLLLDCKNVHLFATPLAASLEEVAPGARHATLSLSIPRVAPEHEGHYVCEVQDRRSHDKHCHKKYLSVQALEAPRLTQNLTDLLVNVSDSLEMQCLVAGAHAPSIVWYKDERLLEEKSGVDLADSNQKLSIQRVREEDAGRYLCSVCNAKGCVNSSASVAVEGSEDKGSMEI
Protocol: Briefly, 1 μg/ml human VEGFR1 (Sino Biological, cat #10136-H08H), VEGFR2 (Acrobiosystem, cat #KDR-H5227) and VEGFR3 (Sino Biological, cat #10806-H08H) protein were coated overnight at 4° C. 1 μg/ml humanized antibodies (48-H3L1 and 54-H2L1, produced in CHO cells or Ramucirumab from Eli Lilly Germany, lot #20150819) were added for binding to coated antigen. Secondary antibody HRP conjugated goat anti-human Fc antibody were added for detection of binding signal.

[2] = target: T3, human VEGFR2 on HUVEC cells (human, UniProt P35968 20-1356); experiment: flow cytometry on HUVEC cells, MFI, anti-human IgG (H+L)-PE
T3 construct: also called hVEGFR2 on HUVEC
Protocol: Same methods with Example 11. Briefly, Log phase HUVEC cells were collected and added to each tube. Then 100 μl/tube serial diluted humanized antibodies in FACS buffer were added and kept at 4° C. for 1 hr. Binding of antibodies to HUVEC was detected by PE signal of the 2nd antibody (anti-hIgG (H+L)-PE), which was added after the 1st antibodies. (see FIG. 15).

B1: 54-H2L1 (humanized Mab54) (antibody, human IgG1, V domains shown)
VH: EVQLVESGGGLVKPGGSLRLSCAASGFTFSMYGMSWVRQAPGKRLEWVASISIGGSYTYYADSVKGRFTISRDNAKNTLYLQMNSLRAEDTAVYYCARELDGNYDYWGQGTTLTVSS
VL: DIVITQDELSLPVTFGESVSISCRSSKSLLYKDGKTYLNWFLQRPGQSPQLLIYLMSTRASGVSDRFSGSGSGTDFTLKISRVEAEDVGIYYCQQLVEYPFTFGSGTKLEIK
notes: also called 54-H2L1 (CHO); humanized 54 variant H2L1
For B1, the IC50 [1] was 0.805 µg/mL, the binding result (human VEGFR3 protein) was “no binding (tested: 1 µg/ml)” and the “EC50 (read off the curve)” value [2] was about 0.3 µg/mL.
